Laboratory results taken from the supplement of paper PMC12636428.

These sequences were tested on Saccharomyces cerevisiae (assay: transcriptional activation domain activity (GFP:mCherry ratio, weighted mean of sorted bins, harmonized to initial dataset scale) (arbitrary fluorescence ratio units); higher = stronger transcriptional activation). Settings: beta-estradiol 1 µM; induction time 4 h.
Method in brief: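 After a 1:5 dilution into SC with 1 uM beta-estradiol and 4 hours at 30 °C, yeast diploids carrying a GFP reporter and URA3-integrated barcoded tiles were sorted into 8 bins by GFP:mCherry ratio. The tiles were fused to an estradiol-inducible synthetic transcription factor. Barcodes were sequenced, tiles below 50 reads were discarded, and activation activity was taken as the read-weighted mean of bin median fluorescence, averaged across barcodes and linearly mapped onto the initial dataset scale.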
With “FLMVLCLFCIVYLFFSCFPFFAMSYVLLLLFCFYCILFYFSCPFCFVICNSVV” the “transcriptional activation domain activity” value was 54000.
“FLNNAPDEDPNLNNQWSICDDFSEGRQVNDAFVGGSNIPHTLKGLQKSLRFMN” was tested, and the “transcriptional activation domain activity” value was 50800.
“FLNRYLGLLGNIPVILEFFGNFTEHMFVFAFCFWLAFTQLVVIALLIIRTYAL” was tested, and the “transcriptional activation domain activity” value was 65900.
“FLPCDPYFLVSFFIQFFLLGFPFCLPLLSFLLLLLSFFHLSLEVFSLLLGDFH” was tested, and the “transcriptional activation domain activity” value was 59400.
“FLQNSSDSVDIRLALLLTPLENTKGVSHVDQLNKPTHTVVVGIVHLCNPKSRA” was tested, and the “transcriptional activation domain activity” value was 51600.
For “FLRGLVVLLWSLDSLHLAFIVHGLYYYLIQNYGNYFSLFKPVWSFVGQILVSS”, the “transcriptional activation domain activity” value was 57300.
“FLRLFCFAFIMLVGILPTQAYVVYADVKLSMPWHAYSWSNMHGPSWHTVNMVP” was tested, and the “transcriptional activation domain activity” value was 51400.
With “FLRRVFQNHPEVMFKPGPFYMGDGIIGLGANWICICWTLFVCVLLSFPTILPV” the “transcriptional activation domain activity” value was 66700.
In the case of “FLSCLLAMEIIQHYMYVVAIKDRKAWIGDSPFELSMIGLWNLVIVWLKLLLPW”, the “transcriptional activation domain activity” value is reported as 59900.
“FLSCMPFVFLTVVCSTLCMYFAKVFPTNNPVFLPLLLLHTFIHILSVVSFGLL” was tested, and the “transcriptional activation domain activity” value was 33300.
“FLSGWPLVLGKFGFDPKFNSCWYLNQDDRLTLIWLWCTFYFWVVASVIYSLLV” was tested, and the “transcriptional activation domain activity” value was 62300.
For “FLSLLVLVCWVPCFVIMEVYLKSLTFNSVPYPPIHCFTPEGSHILYLCWGLIA”, the “transcriptional activation domain activity” value was 32200.
For “FLSTFFIIPLDVMCRKAVLCCNKHFLPFLMVSMGPRFHSPHFSLNTFCHRLFF”, the “transcriptional activation domain activity” value was 47300.
For “FLSYFSGWLTVIAWQCLVASASYVSGTLLQGLLVLNYPTYVFERWQGTLLMYA”, the “transcriptional activation domain activity” value was 57900.
For “FLTAIPAVPFAGGLSFNILLLFHHSLPFAGFLAHGFYRIIFPITLFFLPIFML”, the “transcriptional activation domain activity” value was 52900.
“FLVAFLLMCLHSPDKSTVAMLILGVFSLLLLLFWAASLSFDGQPSKYGWLLRH” was tested, and the “transcriptional activation domain activity” value was 50200.
In the case of “FLVCLLTMEFILHYMYVVAIQGAKAWHGDTPLELSMIGFWNLIVVWLKLLLPW”, the “transcriptional activation domain activity” value is reported as 18200.
“FLVCSFHHSIFGFFFWLFFDFFSFLHWRLCVLFPFWFRSKSSFPSFFFIVIIS” was tested, and the “transcriptional activation domain activity” value was 51300.
With “FLVLRYGALIGHVPLFYNVFADPCKTPHLIHILAFYHYIFVFVLTALTTVLLV” the “transcriptional activation domain activity” value was 49400.
In the case of “FLVRLFVLPVTLCMLYRCSVSLDLSRLNGSARNEWFNYWNKALLLGMTLFSMR”, the “transcriptional activation domain activity” value is reported as 62500.
“FLWGGRHGFVGFCIPLILLFFMLLSCISFCISILHFFFVLSFLLNFFCEFFLR” was tested, and the “transcriptional activation domain activity” value was 36100.
“FLWYMLFLPLIIPRLSCSWLRLLCVQSGIFGEPIFFRLWICSIIYVVGHCWVL” was tested, and the “transcriptional activation domain activity” value was 31200.
“FLYLLSRYLGLAVHITNTVFAILVGHYQVIPVHLCRIGLVYQGAVLFVMLGIL” was tested, and the “transcriptional activation domain activity” value was 46900.
“FLYTLHIYDGQEGYHFLFNSFGNGSEWLQWSDGEQWALLYAQNYTMIIWVWYM” was tested, and the “transcriptional activation domain activity” value was 15000.
For “FMHLSRPEKLLVLKVFADLVDYARKSIDSCLSSPTVNWSFNNLLWNYCSMLLQ”, the “transcriptional activation domain activity” value was 67000.
For “FMHYYRRDRRHLKFLVLLVLFLSTCHFGLYVLTIFRVFVTMHSVVIPSHQVPW”, the “transcriptional activation domain activity” value was 63000.
With “FMNTNEINNNNNNNNNNKNNINNINNNNSNNFSATSFNLGTLDEFVNNGDLED” the “transcriptional activation domain activity” value was 11800.
For “FMSDVGILRWSKLGMPIQSLYQAIWLTFWCSFPFIRDWSWTAQVFFTLHLLSI”, the “transcriptional activation domain activity” value was 43100.
For “FMVLFFITLFSFLVLIPFPWSFVSRYVYSSMFMFCIFFSAFLRFHLLLLSFCR”, the “transcriptional activation domain activity” value was 54900.
In the case of “FNEFYPSGWPPSYFIVILRMLFLVCGLFFLWSFFFVVFFFCGLLSLLFFILVV”, the “transcriptional activation domain activity” value is reported as 28500.
For “FNIVAFGIIILDFWGMIGIWTQKFGFHHVWEVWLYQVYYGLFVCPWYSYSQIM”, the “transcriptional activation domain activity” value was 80200.
“FNLNEILPLPASDFKLNTVTNLNEIDFTNIFTKSPHPHSGSTHPRQVFDQLDD” was tested, and the “transcriptional activation domain activity” value was 51600.
With “FNLYLLSWLHLLSSKSSSLGNSSAWWIRPVEITMMSCYWYIFGYLLLWCTLPT” the “transcriptional activation domain activity” value was 38200.
In the case of “FNNDGWDTSLPIDFDFDEFNTETTDFDDFLKLLGDNSPSKEQKSLSYSPTATG”, the “transcriptional activation domain activity” value is reported as 162000.
“FPAHFLSLLLTPISFSPLPIFPCTYINFLPLLQYLLLGNFFFGCIIWRPMTFC” was tested, and the “transcriptional activation domain activity” value was 59000.
With “FPCFFISLFPCLLSLSISLFPCLVISLSFFLISLFPFLFLFFPFLSFSLFPYF” the “transcriptional activation domain activity” value was 68500.
For “FPEMITILIFTWSHNPLPHLVWHNQQECGSSLSTRFLCIFAVILCIWFVKRVF”, the “transcriptional activation domain activity” value was 59700.
In the case of “FPFFLSSLFFFLPFFSFFPFFLSSLFLLLFFSFSSSSYQTFSLREQFFHLFFT”, the “transcriptional activation domain activity” value is reported as 43500.
In the case of “FPFSLLVLLIFYVFSFVFVICYMGILGAQYVYFYFSYIFDCHPLPLLRRLSFF”, the “transcriptional activation domain activity” value is reported as 36900.
“FPHNETLPALGQDGINEDNLNETIDNMLIFDFLDDGSENNQVKYSRIIPPDIR” was tested, and the “transcriptional activation domain activity” value was 89000.
With “FPILLRFIFTHFRMLFSCQLFCLMGFRVECLDFDPGSFILFHLTFLWLPFVLF” the “transcriptional activation domain activity” value was 53300.
For “FPIRIYSYVKLKWHLFLFDYCYFASMLNLIYLWILPNSTLLFTICYCAAHGPL”, the “transcriptional activation domain activity” value was 61800.
“FPPLFVSPLRLRYPFCGILFNIDTLFFRFLLVHIWLPFFCTYLYPYLLPFHWA” was tested, and the “transcriptional activation domain activity” value was 74200.
“FPPPFPPPFPPPFLSSFPPPVPLPLTFPLPPFPFQFPFPFPHPLTFPLPFPFP” was tested, and the “transcriptional activation domain activity” value was 17600.
In the case of “FPRLTDMVCELEDYLRPLAEHARAADVELVEIAVVSVYVNILNFSWKARCVFV”, the “transcriptional activation domain activity” value is reported as 43600.
With “FPRLVGCIAASLEGLPSTRNGRTAYCVLRVVASYFLCLIRNLMFSDLPVVRCR” the “transcriptional activation domain activity” value was 68700.
In the case of “FPSLRLPFCVCLWFRLFVFFFHIGSFVLLVRLFFFFFNFGLFFLFFFLFSFFS”, the “transcriptional activation domain activity” value is reported as 27500.
In the case of “FPTLGFVVDRYFRVTNFVPETFWSIKVVHKKDSINVNFNWKRGHLFDRMTVTV”, the “transcriptional activation domain activity” value is reported as 71400.
With “FPTVLVYYLLFAIGRLCTIMLYAALETCLAFMNHFPLFAMMLRLKDPARLPGG” the “transcriptional activation domain activity” value was 61800.
For “FPYFPYFPYFPYFLYFLFSLFSLLSLLPLLLYFLHPFLFLTCFWFSKLACFLS”, the “transcriptional activation domain activity” value was 51400.
For “FQAQGDDELTVVEGDALWIIEQEGDEWWKCRNIKGDEGVVCVVIPRPTGAGRL”, the “transcriptional activation domain activity” value was 36300.
For “FQFPIDFTNDFSDGFSLDADIGQFMDPLLLTSFLPSPIPFDDGTELSSLELLH”, the “transcriptional activation domain activity” value was 167000.
With “FQLWKSLNCAYSSVQVTSQGFSIGILFWTLLEYVLHRFLFHLDKLLPDHPIAL” the “transcriptional activation domain activity” value was 63900.
For “FQNISNTILDISLSHGKVPNMDQLTRELFGASDSYQDILDENNVDVSWVDKLV”, the “transcriptional activation domain activity” value was 103000.
“FQPAVATPTVSIGLIYLIIMAFFSFSFFLPIHMKYIQPQGHPPLHFWQLIIWR” was tested, and the “transcriptional activation domain activity” value was 68900.
With “FQTFYSNFKRKVLVWSLRFTNLTYNQPLVWHATFVYILALLSMPWFKAKFIPS” the “transcriptional activation domain activity” value was 43800.
In the case of “FQTIHVDASCIGIASPLVHVELQPDLCGRKFPELIGIDLTAATLVRLLSLLCL”, the “transcriptional activation domain activity” value is reported as 43000.
For “FRAPYPCCLDVVFAMIWAGARVCLFDSTKALEDLLLARFVLPPHVVCLVGLAQ”, the “transcriptional activation domain activity” value was 48900.
“FRCLFLLFLLFSLICCRAISLQKHCLCLTYASSTALFVIVFILLLFWYLIIIT” was tested, and the “transcriptional activation domain activity” value was 76100.
For “FREELVHFFKDPNFDPKLAFESSSYIVNHVLKLTLVMWRYLLVKVEHSFLIAM”, the “transcriptional activation domain activity” value was 59800.
“FRFLLKLLLVHGRWNYIRTCKYTLGTFWKEMLFYLTQALYQRWAGYTGTSLYE” was tested, and the “transcriptional activation domain activity” value was 54800.
